Laboratory results taken from patent publication US20240124590A1 (ULTRAHUMAN EIGHT, published 2024).
Changes are numbered by the printed parent chain. Read-outs that look alike come from different tables or passages of the source.

T1: recombinant ectodomain of human FZD5 (human, UniProt Q13467 27-167, limits assumed)
T1 construct: whole entry named
T1 sequence: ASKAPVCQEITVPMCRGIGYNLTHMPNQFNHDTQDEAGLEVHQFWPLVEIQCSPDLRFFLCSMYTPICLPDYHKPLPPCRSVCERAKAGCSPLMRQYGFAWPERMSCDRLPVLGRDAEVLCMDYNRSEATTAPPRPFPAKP

T2: cynomolgus monkey PD1 human Fc tagged recombinant protein (cynomolgus monkey, UniProt Q15116 25-170 (human entry), limits assumed)
T2 construct: also called cyPD1-Fc; cyPD-1-Fc; not shown: human Fc tag
T2 chain: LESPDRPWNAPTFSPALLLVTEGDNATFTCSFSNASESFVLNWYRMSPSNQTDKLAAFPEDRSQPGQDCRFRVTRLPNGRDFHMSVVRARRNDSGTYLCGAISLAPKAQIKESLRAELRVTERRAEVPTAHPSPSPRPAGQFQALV

T3: human ULBP2 (UL16 binding protein 2) on transfected HEK293 cells (human, UniProt Q9BZM5 26-217)
T3 sequence: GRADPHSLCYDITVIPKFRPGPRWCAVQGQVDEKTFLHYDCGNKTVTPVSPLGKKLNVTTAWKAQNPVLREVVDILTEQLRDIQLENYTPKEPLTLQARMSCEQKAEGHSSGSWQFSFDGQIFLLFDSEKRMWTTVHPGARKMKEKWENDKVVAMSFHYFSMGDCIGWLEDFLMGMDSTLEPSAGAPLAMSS

B1: IgG1-08 (antibody, V domains shown)
VH: EVQLVESGGGLVQPGGSLRLSCAASGFTFSSYLMSWVRQAPGKGLEWVATISGGGSEKYYVDSVKGRFTISRDNAKNSLYLQMNSLRAEDTAVYYCARQLYGFDYWGQGTLVTVSS
VL: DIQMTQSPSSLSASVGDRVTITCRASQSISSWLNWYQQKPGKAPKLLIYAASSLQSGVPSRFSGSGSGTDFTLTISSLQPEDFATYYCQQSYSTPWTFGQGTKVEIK
notes: Designer; human IgG1null + Ckappa; also called Antibody IgG1-08; MAB08
B2: IgG1-05 (antibody, V domains shown)
VH: B1 VH with L100V, G102Y
VL: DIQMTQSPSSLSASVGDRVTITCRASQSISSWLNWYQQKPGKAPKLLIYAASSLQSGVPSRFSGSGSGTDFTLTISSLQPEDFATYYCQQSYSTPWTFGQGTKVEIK
notes: Designer; human IgG1null + Ckappa; also called Antibody IgG1-05
B3: IgG1-06D02 (antibody, V domains shown)
VH: B1 VH with K58T
VL: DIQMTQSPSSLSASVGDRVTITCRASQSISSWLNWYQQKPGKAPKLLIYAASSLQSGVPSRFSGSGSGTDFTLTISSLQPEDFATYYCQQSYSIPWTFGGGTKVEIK
notes: Library-derived; human IgG1null + Ckappa; also called Clone 06D02

What was measured:
[1] = target: T1, recombinant ectodomain of human FZD5; assay: direct ELISA
[2] = target: human PD1 expressed on cells (human, UniProt Q15116 25-288); assay: cell-based or functional assay
[3] = target: T4, human PD1 human Fc tagged recombinant protein (human, UniProt Q15116 25-170, limits assumed); assay: direct ELISA, IgG1null on coated PD1-Fc
T4 construct: also called huPD1-Fc; huPD-1-Fc; not shown: human Fc tag
Experimental: (§1) Binding and cross-reactivity of the lead panel to the recombinant proteins was initially assessed by binding ELISA. The human PD1 human Fc tagged recombinant protein and the cynomolgus monkey PD1 human Fc tagged recombinant protein were coated to the surface of MaxiSorp™ flat-bottom 96 well plate at 1 μg/ml. […] The Fabs were detected using mouse anti-c-myc antibody followed by donkey anti-mouse IgG conjugated to horseradish peroxidase. The IgGs were detected using the mouse anti-human IgG conjugated to horseradish peroxidase. Binding signals were visualized with 3,3′,5,5′-Tetrannethylbenzidine Substrate Solution (TMB) and the absorbance measured at 450 nm.
(§2) The purified IgGs described above were then tested for binding to human and cyno PD1-Fc in direct titration ELISA format. […] As the ELISA EC50 values for directly binding IgGs are strongly influenced by avidity, rather than true 1:1 binding affinity, we then proceeded to perform higher-sensitivity, solution-phase epitope competition and Biacore binding affinity determinations, as outlined below.

[4] = target: T2, cynomolgus monkey PD1 human Fc tagged …; assay: direct ELISA, IgG1null on coated PD1-Fc
Experimental: as §1, §2

[5] = target: T5, human FZD5 (frizzled class receptor 5) on transfected HEK293 cells (human, UniProt Q13467 27-585); assay: cell microarray re-array, transfected HEK293
T5 construct: also called FZDS; FZ5
Experimental: (§3) Antibody binding was detected using AF647 fluorescent secondary anti-human IgG1 antibody. Primary hits (duplicate spots) were identified by analysing fluorescence (AF647 and ZsGreen1) on ImageQuant. Vectors encoding all hits were sequenced to confirm their correct identities. […] Slides were analysed as above. Flow cytometry confirmation screen: Expression vectors encoding ZsGreen1 only, or ZsGreen1 and PD1, FZDS, KDR or ULBP2, were transfected into human HEK293 cells. Each live transfectant was incubated with […] of each of the test antibodies and the Isotype control antibody. Cells were washed, and incubated with the same AF647 anti-human IgG Fc detection antibody as used in the cell microarray screens. Cells were again washed, and analysed by flow cytometry using an Accuri flow cytometer (BD). A 7AAD live/dead dye was used to exclude dead cells, and ZsGreen1-positive cells (i.e. transfected cells) were selected for analyses.

[6] = target: T6, human KDR (VEGFR2) on cells (human, UniProt P35968 20-1356); assay: cell microarray re-array, transfected HEK293
T6 construct: Transfected HEK293 cells (arrays, flow cytometry) and human VEGFR2 reporter cells
Experimental: as §3

[7] = target: T3, human ULBP2 (UL16 binding protein 2) on …; assay: cell microarray re-array, transfected HEK293
Experimental: as §3

[8] = target: T4, human PD1 human Fc tagged recombinant …; assay: direct ELISA, IgG1null on coated PD1-Fc; remark: listed apart in the source
Experimental: as §1, §2

[9] = target: T2, cynomolgus monkey PD1 human Fc tagged …; assay: direct ELISA, IgG1null on coated PD1-Fc
Experimental: as §1, §2

Chain of human PD1 expressed on cells (Q15116 25-288 limits assumed): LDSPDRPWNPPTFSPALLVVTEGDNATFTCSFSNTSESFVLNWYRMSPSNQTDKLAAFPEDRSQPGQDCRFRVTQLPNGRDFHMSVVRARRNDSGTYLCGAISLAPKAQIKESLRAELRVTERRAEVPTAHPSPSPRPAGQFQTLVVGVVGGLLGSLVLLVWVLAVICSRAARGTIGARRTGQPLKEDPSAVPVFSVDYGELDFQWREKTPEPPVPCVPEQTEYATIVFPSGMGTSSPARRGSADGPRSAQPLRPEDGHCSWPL
T6 sequence (P35968 20-1356 limits assumed): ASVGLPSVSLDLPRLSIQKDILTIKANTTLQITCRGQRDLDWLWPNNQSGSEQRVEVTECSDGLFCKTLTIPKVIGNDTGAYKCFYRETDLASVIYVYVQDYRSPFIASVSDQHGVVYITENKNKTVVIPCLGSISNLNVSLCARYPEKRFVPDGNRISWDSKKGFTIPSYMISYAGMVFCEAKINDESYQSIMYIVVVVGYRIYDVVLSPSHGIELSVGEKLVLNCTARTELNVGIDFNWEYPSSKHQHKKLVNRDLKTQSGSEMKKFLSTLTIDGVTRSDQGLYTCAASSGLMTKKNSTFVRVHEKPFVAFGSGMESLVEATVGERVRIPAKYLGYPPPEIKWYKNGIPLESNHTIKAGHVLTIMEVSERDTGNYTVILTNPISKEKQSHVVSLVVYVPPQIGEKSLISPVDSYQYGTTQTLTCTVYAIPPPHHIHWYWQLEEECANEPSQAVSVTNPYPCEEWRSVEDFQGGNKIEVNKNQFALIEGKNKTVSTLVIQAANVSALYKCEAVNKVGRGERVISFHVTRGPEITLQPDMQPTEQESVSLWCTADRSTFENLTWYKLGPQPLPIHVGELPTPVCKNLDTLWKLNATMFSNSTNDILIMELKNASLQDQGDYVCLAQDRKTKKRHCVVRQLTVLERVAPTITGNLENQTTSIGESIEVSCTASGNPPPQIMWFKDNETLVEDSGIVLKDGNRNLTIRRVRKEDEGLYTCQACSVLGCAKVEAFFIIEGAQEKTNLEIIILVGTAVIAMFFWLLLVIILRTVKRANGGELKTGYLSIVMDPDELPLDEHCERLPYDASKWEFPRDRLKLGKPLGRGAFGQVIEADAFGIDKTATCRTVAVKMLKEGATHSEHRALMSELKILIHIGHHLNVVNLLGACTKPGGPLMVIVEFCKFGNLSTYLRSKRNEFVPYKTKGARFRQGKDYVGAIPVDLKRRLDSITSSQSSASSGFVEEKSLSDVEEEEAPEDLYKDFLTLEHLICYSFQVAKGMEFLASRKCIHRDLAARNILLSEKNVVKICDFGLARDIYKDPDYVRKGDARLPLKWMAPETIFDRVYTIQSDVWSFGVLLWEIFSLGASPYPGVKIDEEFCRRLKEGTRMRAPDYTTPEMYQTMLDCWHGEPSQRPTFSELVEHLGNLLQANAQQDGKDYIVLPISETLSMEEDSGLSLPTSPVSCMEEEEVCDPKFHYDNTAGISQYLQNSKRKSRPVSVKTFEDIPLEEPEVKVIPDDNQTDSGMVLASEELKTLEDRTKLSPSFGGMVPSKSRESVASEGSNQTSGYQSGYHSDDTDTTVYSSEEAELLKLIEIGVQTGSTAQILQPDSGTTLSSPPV
T4 sequence (Q15116 25-170 limits assumed): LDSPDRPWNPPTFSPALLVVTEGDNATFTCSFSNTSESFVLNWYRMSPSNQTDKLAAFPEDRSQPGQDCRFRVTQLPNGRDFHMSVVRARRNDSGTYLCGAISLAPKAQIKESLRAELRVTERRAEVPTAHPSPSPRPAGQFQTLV

| Binder | binding result [1] | EC50 (ng/ml), IgG1null blockade of human PD1/PD-L1 [2] | EC50 [3] | EC50 [4] | binding result [5] | binding result [6] | binding result [7] | EC50 [8] | EC50 [9] |
| --- | --- | --- | --- | --- | --- | --- | --- | --- | --- |
| B1 | no binding | 127 ng/mL | 0.134 nM | 0.0771 nM | no binding (tested: 5 µg/ml) | no binding (tested: 5 µg/ml) | no binding (tested: 5 µg/ml) |  |  |
| B2 | no binding | 156 ng/mL | 0.121 nM | 0.135 nM | no binding (tested: 5 µg/ml) | no binding (tested: 5 µg/ml) | no binding (tested: 5 µg/ml) |  |  |
| B3 | no binding | 224 ng/mL |  |  | no binding (tested: 5 µg/ml) | no binding (tested: 5 µg/ml) | no binding (tested: 5 µg/ml) | 0.065 nM | 0.104 nM |
